In patent publication US20190177408A1 (SUZHOU CONNECT BIOPHARMACEUTICALS, published 2019):

T1: human soluble IL-4Rα (sIL-4Rα) (human, UniProt P24394 26-232)
T1 construct: Bought reagent (PEPRO TECH, Catalog Number 200-04R); also called shIL-4Rα; soluble hIL-4 Rα
T1 sequence: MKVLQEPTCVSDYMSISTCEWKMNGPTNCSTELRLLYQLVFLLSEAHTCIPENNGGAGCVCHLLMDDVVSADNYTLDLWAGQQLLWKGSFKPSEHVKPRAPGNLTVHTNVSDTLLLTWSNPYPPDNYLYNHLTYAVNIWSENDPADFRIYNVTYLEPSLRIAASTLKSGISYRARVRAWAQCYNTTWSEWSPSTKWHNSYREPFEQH


Biological target: T1, human soluble IL-4Rα (sIL-4Rα)
Experiment: ELISA, coated sIL-4Rα, culture supernatant
Description: 100 μl of 100 μg/ml sIL-4Rα solution was added to 9.90 ml of PBS, mixed up and down, and then an antigen coating buffer of 1.0 μg/ml was obtained. The prepared antigen coating buffer was added to a 96-well ELISA plate (Corning) with a volume of 100 μl per well. The 96-well ELISA plate was incubated overnight in a refrigerator at 4° C. On the next day; the solution therein was discarded; and PBS containing 2% BSA was added to the 96-well ELISA plate row by row with a volume of 300 μl per well. The 96-well ELISA plate was incubated for 2 hours in a refrigerator at 4° C., Then the PBS containing 2% BSA was discarded and the plate was washed 3 times with PBST. Diluted antibodies to be tested were sequentially added to the corresponding wells, while the normal cell culture supernatants, as negative control samples, were added too. Three duplicate wells were made for each sample with a volume of 100 μl per well. The ELISA plate was wrapped with preservative film (or covered) and incubated for 1 h at […] in a constant temperature incubator. Subsequently, the 96-well ELISA plate was taken out, and the solution therein was discarded. After washing with PBST for 3 times, TMB solution (Solarbio, Catalog Number: PR1200) was added to the 96-well ELISA plate row by row with a volume of 100 μl per well. The 96-well ELISA plate was placed at room temperature for 5 minutes, and 2 M H2SO4 solution was added in immediately to terminate the reaction. The 96-well ELISA plate was placed in flexstation 3 (Molecular Devices), the values of OD450 were read, and the data were collected, calculated and analyzed. Results were expressed relative to the affinity of control antibody 1.

| Binder | OD 450/OD450Control antibody 1 |
| --- | --- |
| L1000H1007 (antibody, V domains shown, human kappa) VH: EVQLVQSGGGLVHPGGSLRLSCAGSGFTFSRNAMFWVRQAPGKGLEWVSGIGTGGATSYADSVKGRFTISRDNAKNSLYLQMNSLRAEDMAVYYCARGRYYFDYWGQGTLVTVSS VL: not shown | 0.37 |
| L1000H1026 (antibody, V domains shown, human kappa) VH: EVQLVESGGGLVQPGGSLRLSCAGSGFTFSRNAMFWVRQAPGKGLEWVSGIGTGGATSYADSVKGRFTISRDNAKNSLYLQMNSLRAEDTAVYYCARGRYYFPWWGQGTLVTVSS VL: not shown | 0.11 |
| L1000H1022 (antibody, V domains shown, human kappa) VH: EVQLVQSGGGLVHPGGSLRLSCAGSGFTFSRNAMFWVRQAPGKGLEWVSGIGTGGATSYADSVKGRFTISRDNAKNSLYLQMNSLRAEDTAVYYCARGRYYFPWWGQGTLVTVSS VL: not shown | 0.18 |
| L1000H1027 (antibody, V domains shown, human kappa) VH: EVQLVESGGGLVHPGGSLRLSCAASGFTFSRNAMFWVRQAPGKGLEWVSGIGTGGATSYADSVKGRFTISRDNAKNSLYLQMNSLRAEDTAVYYCARGRYYFPWWGQGTLVTVSS VL: not shown | 0.44 |
| L1000H1010 (antibody, V domains shown, human kappa) VH: EVQLVQSGGGLVQPGGSLRLSCAGSGFTFSRNAMFWVRQAPGKGLEWVSGIGTGGATNYADSVKGRFTISRDNAKNSLYLQMNSLRAEDMAVYYCARGRYYFDYWGQGTLVTVSS VL: not shown | 0.11 |
| L1008H1000 (antibody, V domains shown, human kappa) VH: EVQLVQSGGGLVHPGGSLRLSCAGSGFTFSRNAMFWVRQAPGKGLEWVSGIGTGGATNYADSVKGRFTISRDNAKNSLYLQMNSLRAEDMAVYYCARGRYYFDYWGQGTLVTVSS VL: not shown | 0.9 |
| L1000H1024 (antibody, V domains shown, human kappa) VH: EVQLVQSGGGLVQPGGSLRLSCAGSGFTFSRNAMFWVRQAPGKGLEWVSGIGTGGATSYADSVKGRFTISRDNAKNSLYLQMNSLRAEDTAVYYCARGRYYFPWWGQGTLVTVSS VL: not shown | 0.26 |
| L1000H1030 (antibody, V domains shown, human kappa) VH: EVQLVESGGGLVQPGGSLRLSCAASGFTFSRNAMFWVRQAPGKGLEWVSGIGTGGATNYADSVKGRFTISRDNAKNSLYLQMNSLRAEDTAVYYCARGRYYFPWWGQGTLVTVSS VL: not shown | 0.2 |
| L1011H1000 (antibody, V domains shown, human kappa) VH: EVQLVQSGGGLVHPGGSLRLSCAGSGFTFSRNAMFWVRQAPGKGLEWVSGIGTGGATNYADSVKGRFTISRDNAKNSLYLQMNSLRAEDMAVYYCARGRYYFDYWGQGTLVTVSS VL: EIVLTQSPGTLSLSPGERATLSCRASQSVSNSYLAWYQQKPGQAPRLLIFGASSRAPGIPDRFSGSGSGTDFTLTISRLEPEDFAVYYCQQYGSSPPWTFGQGTKVEIK | 0.9 |
| L1012H1000 (antibody, V domains shown, human kappa) VH: EVQLVQSGGGLVHPGGSLRLSCAGSGFTFSRNAMFWVRQAPGKGLEWVSGIGTGGATNYADSVKGRFTISRDNAKNSLYLQMNSLRAEDMAVYYCARGRYYFDYWGQGTLVTVSS VL: not shown | 1.22 |
| L1000H1020 (antibody, V domains shown, human kappa) VH: EVQLVQSGGGLVHPGGSLRLSCAGSGFTFSRNAMFWVRQAPGKGLEWVSGIGTGGATSYADSVKGRFTISRDNAKNSLYLQMNSLRAEDMAVYYCARGRYYFPWWGQGTLVTVSS VL: not shown | 0.23 |
| L1000H1012 (antibody, V domains shown, human kappa) VH: EVQLVQSGGGLVHPGGSLRLSCAGSGFTFSRNAMFWVRQAPGKGLEWVSGIGTGGATSYADSVKGRFTISRDNAKNSLYLQMNSLRAEDTAVYYCARGRYYFDYWGQGTLVTVSS VL: not shown | 0.18 |
| L1010H1000 (antibody, V domains shown, human kappa) VH: EVQLVQSGGGLVHPGGSLRLSCAGSGFTFSRNAMFWVRQAPGKGLEWVSGIGTGGATNYADSVKGRFTISRDNAKNSLYLQMNSLRAEDMAVYYCARGRYYFDYWGQGTLVTVSS VL: not shown | 1 |
| L1007H1000 (antibody, V domains shown, human kappa) VH: EVQLVQSGGGLVHPGGSLRLSCAGSGFTFSRNAMFWVRQAPGKGLEWVSGIGTGGATNYADSVKGRFTISRDNAKNSLYLQMNSLRAEDMAVYYCARGRYYFDYWGQGTLVTVSS VL: not shown | 0.8 |
| L1012H1031 (antibody, V domains shown, human kappa) VH: EVQLVESGGGLVQPGGSLRLSCAASGFTFSRNAMFWVRQAPGKGLEWVSGIGTGGATSYADSVKGRFTISRDNAKNSLYLQMNSLRAEDTAVYYCARGRYYFDYWGQGTLVTVSS VL: not shown | 0.16 |

Next, values leading:

| OD 450/OD450Control antibody 1 | Binder |
| --- | --- |
| 0.21 | L1000H1025 (antibody, V domains shown, human kappa) VH: EVQLVQSGGGLVHPGGSLRLSCAASGFTFSRNAMFWVRQAPGKGLEWVSGIGTGGATSYADSVKGRFTISRDNAKNSLYLQMNSLRAEDTAVYYCARGRYYFPWWGQGTLVTVSS VL: not shown |
| 0.11 | L1012H1029 (antibody, V domains shown, human kappa) VH: EVQLVESGGGLVQPGGSLRLSCAASGFTFSRNAMFWVRQAPGKGLEWVSGIGTGGATSYADSVKGRFTISRDNAKNSLYLQMNSLRAEDMAVYYCARGRYYFPWWGQGTLVTVSS VL: not shown |
| 0.11 | L1012H1020 (antibody, V domains shown, human kappa) VH: EVQLVQSGGGLVHPGGSLRLSCAGSGFTFSRNAMFWVRQAPGKGLEWVSGIGTGGATSYADSVKGRFTISRDNAKNSLYLQMNSLRAEDMAVYYCARGRYYFPWWGQGTLVTVSS VL: not shown |
| 0.35 | L1000H1021 (antibody, V domains shown, human kappa) VH: EVQLVQSGGGLVHPGGSLRLSCAGSGFTFSRNAMFWVRQAPGKGLEWVSGIGTGGATNYADSVKGRFTISRDNAKNSLYLQMNSLRAEDTAVYYCARGRYYFPWWGQGTLVTVSS VL: not shown |
| -0.01 | L1000H1037 (antibody, V domains shown, human kappa) VH: EVQLVQSGGGLVHPGGSLRLSCAGSGFTFSRNAMFWVRQAPGKGLEWVSGIGTGGATNYADSVKGRFTISRDEAKNSLYLQMNSLRAEDMAVYYCARGRYYFDYWGQGTLVTVSS VL: not shown |
| 0.38 | L1000H1013 (antibody, V domains shown, human kappa) VH: EVQLVESGGGLVHPGGSLRLSCAASGFTFSRNAMFWVRQAPGKGLEWVSGIGTGGATNYADSVKGRFTISRDNAKNSLYLQMNSLRAEDMAVYYCARGRYYFDYWGQGTLVTVSS VL: not shown |
| 0.22 | L1000H1035 (antibody, V domains shown, human kappa) VH: EVQLVQSGGGLVHPGGSLRLSCAGSGFTFSRNAMHWVRQAPGKGLEWVSGIGTGGATNYADSVKGRFTISRDNAKNSLYLQMNSLRAEDMAVYYCARGRYYFDYWGQGTLVTVSS VL: not shown |
| 1.14 | L1000H1031 (antibody, V domains shown, human kappa) VH: EVQLVESGGGLVQPGGSLRLSCAASGFTFSRNAMFWVRQAPGKGLEWVSGIGTGGATSYADSVKGRFTISRDNAKNSLYLQMNSLRAEDTAVYYCARGRYYFDYWGQGTLVTVSS VL: not shown |
| 0.33 | L1000H1028 (antibody, V domains shown, human kappa) VH: EVQLVQSGGGLVQPGGSLRLSCAASGFTFSRNAMFWVRQAPGKGLEWVSGIGTGGATSYADSVKGRFTISRDNAKNSLYLQMNSLRAEDTAVYYCARGRYYFPWWGQGTLVTVSS VL: not shown |
| 0.21 | L1000H1008 (antibody, V domains shown, human kappa) VH: EVQLVQSGGGLVHPGGSLRLSCAGSGFTFSRNAMFWVRQAPGKGLEWVSGIGTGGATNYADSVKGRFTISRDNAKNSLYLQMNSLRAEDTAVYYCARGRYYFDYWGQGTLVTVSS VL: not shown |
| 0.8 | L1000H1029 (antibody, V domains shown, human kappa) VH: EVQLVESGGGLVQPGGSLRLSCAASGFTFSRNAMFWVRQAPGKGLEWVSGIGTGGATSYADSVKGRFTISRDNAKNSLYLQMNSLRAEDMAVYYCARGRYYFPWWGQGTLVTVSS VL: not shown |
| 0.4 | L1012H1007 (antibody, V domains shown, human kappa) VH: EVQLVQSGGGLVHPGGSLRLSCAGSGFTFSRNAMFWVRQAPGKGLEWVSGIGTGGATSYADSVKGRFTISRDNAKNSLYLQMNSLRAEDMAVYYCARGRYYFDYWGQGTLVTVSS VL: not shown |
| 0.1 | L1000H1036 (antibody, V domains shown, human kappa) VH: EVQLVQSGGGLVHPGGSLRLSCAGSGFTFSRNAMFWVRQAPGEGLEWVSGIGTGGATNYADSVKGRFTISRDNAKNSLYLQMNSLRAEDMAVYYCARGRYYFDYWGQGTLVTVSS VL: not shown |
